From PMC11257983 (2024)

B1: Flag-CNK^2–549 [Drosophila] / V5-KSR [Drosophila] (parent)
chain 1: MSSNNNAPASAPDTGSTNANDPISGSLSVDSNLVIIQDMIDLSANHLEGLRTQCAISSTLTQQEIRCLESKLVRYFSELLLAKMRLNERIPANGLVPHTTGNELRQWLRVVGLSQGTLTACLARLTTLEQSLRLSDEEIRQLLADSPSQREEEELRRLTRAMQNLRKCMESLESGTAASNNDPEQWHWDSWDRPTHIHRGSVGNIGLGNNSTASPRTHHRQHGVKGKNSALANSTNFKSGRQSPSATEELNSTQGSQLTLTLTPSPPNSPFTPSSGLSSSLNGTPQRSRGTPPPARKHQTLLSQSHVQVDGEQLARNRLPTDPSPDSHSSTSSDIFVDPNTNASSGGSSSNVLMVPCSPGVGHVGMGHAIKHRFTKALGFMATCTLCQKQVFHRWMKCTDCKYICHKSCAPHVPPSCGLPREYVDEFRHIKEQGGYASLPHVHGAAKGSPLVKKSTLGKPLHQQHGDSSSPSSSCTSSTPSSPALFQQRERELDQAGSSSSANLLPTPSLGKHQPSQFNFPNVTVTSSGGSGGVSLISNEPVPEQFPTAPATANGGLDSLVSSSNGHMSSLIGSQTSNASTAATLTGSLVNSTTTTSTCSFFPRKLSTAGVDKRTPFTSEYTDTHKSNDSDKTVSLSGSASTDSDRTPVRVDSTEDGDSGQWRQNSISLKEWDIPYGDLLLLERIGQGRFGTVHRALWHGDVAVKLLNEDYLQDEHMLETFRSEVANFKNTRHENLVLFMGACMNPPYLAIVTSLCKGNTLYTYIHQRREKFAMNRTLLIAQQIAQGMGYLHAREIIHKDLRTKNIFIENGKVIITDFGLFSSTKLLYCDMGLGVPHNWLCYLAPELIRALQPEKPRGECLEFTPYSDVYSFGTVWYELICGEFTFKDQPAESIIWQVGRGMKQSLANLQSGRDVKDLLMLCWTYEKEHRPQFARLLSLLEHLPKKRLARSPSHPVNLSRSAESVF
chain 2: AYINIAEWTPDQVTDWIKGLDESMKGYLYEFSKQEIGGRALLNIRPYELENLGMLRIGHQEIVLEAVENLRNFHYHLKNDNLQFMALHVATAAKNLHRELARNHAESTKIDTRILHDITRTIATLKPLVGSLERTPFRKQEMYREYCGNVLKCGLELATIAHRDRFALQPVPAIRQSAERLENLANFVIQDISDPMVLQPASLNLVTLKKRESELGFNIESSYNGIHRVTDIKYNSPAHNSGKIEDGDEIVQINYQTVVGWQHRTVLEHLREALPDVVLTVKKRPKHTKMFGQIYMQPYRLPSKKRNMAARWAAQMPSPRAAFLTLDTEQLATGGTGSAVPDPSKSLSSEKREVLTKANPVSSASDSDSSCSDIPTPTDPKLAAREIRLYYPKPRALLQRRNTICGCEYLSLKNSDLVVPSWHERKPGIGSPTNCDPGSPSIRDKSISFGYGLEMAARPTTCIGIAGDTSTDKARRMFHEARKLKQLTEDSQREFLVDRYKPGVSKVVRFDAKEDYVMKNEKFICNVENTILETFEPIPFADEGDEDA
B2: Flag-CNK^2–549 [Drosophila] / Myc-MEK [Drosophila] (parent)
chain 1: MSKNKLNLVLPPVNTEATVAAATVAPTPPFKTPSGTDTHSLLGKPKTSIDALTETLEGLDMGDTERKRIKMFLSQKEKIGELSDEDLEKLGELGSGNGGVVMKVRHTHTHLIMARKLIHLEVKPAIKKQILRELKVLHECNFPHIVGFYGAFYSDGEISICMEYMDGGSLDLILKRAGRIPESILGRITLAVLKGLSYLRDNHAIIHRDVKPSNILVNSSGEIKICDFGVSGQLIDSMANSFVGTRSYMSPERLQGTHYSVQSDIWSLGLSLVEMAIGMYPIPPPNTATLESIFADNAEESGQPTDEPRAMAIFELLDYIVNEPPPKLEHKIFSTEFKDFVDICLKKQPDERADLKTLLSHPWIRKAELEEVDISGWVCKTMDLPPSTPKRNTSPN
chain 2: B1 chain 2
B3: GST-HYP [Drosophila] / V5-KSR [Drosophila] (parent)
chain 1: B1 chain 1
chain 2: MGEETINSTQNKTRTKTTRPKAVYLWTVSDVLKWYRRHCGEYTQYEQLFAQHDITGRALLRITDSSLQRMGVTDNRDREAIWREIVKQRLKTDIMEIRDMERLNIY
B4: GST-HYP [Drosophila] / Myc-MEK [Drosophila] (parent)
chain 1: B2 chain 1
chain 2: B3 chain 2

Variants of: B1
Test: GST pull-down, immunoblot quantification
Settings: with V5-KSR [Drosophila], S2 cells, GST-HYP, Myc-MEK co-expressed, captured via GST-HYP, anti-V5 (KSR) blot, parent: 1

Variant	ratio to parent
chain 2 D194K V197E	0.05

Same assay, conditions: with V5-KSR [Drosophila]; S2 cells; GST-HYP + RRKM co-expressed; captured via GST-HYP; anti-V5 (KSR) blot; parent: 1

Variant	ratio to parent
chain 2 E249R	0.82
chain 2 F73R E249R	0.16

Same assay, conditions: with Flag-CNK^2–549 [Drosophila]; S2 cells; Flag-CNK2–549, GST-HYP + RRM (Ha-RASV12, Pyo-RAF, Myc-MEK) co-expressed; captured via GST-HYP; anti-Myc (MEK) blot; parent: 1

Variant	ratio to parent
chain 1 E926R	1.23

Same assay, conditions: with Flag-CNK^2–549 [Drosophila]; S2 cells; Flag-CNK2–549, GST-HYP + RRM (Ha-RASV12, Pyo-RAF, Myc-MEK) co-expressed; captured via GST-HYP; anti-V5 (KSR) blot; parent: 1

Variant	ratio to parent
chain 1 E926R	1.07

Variants of: B2
Test: GST pull-down, immunoblot quantification
Settings: with Myc-MEK [Drosophila]; S2 cells; GST-HYP, Flag-CNK2–549 + RRKM co-expressed; captured via GST-HYP; anti-Myc (MEK) blot; parent: 1

Variant	ratio to parent
chain 2 I122D L151D	0.01
chain 2 I122D	0.77
chain 2 L151D	0.05

Same assay, conditions: with Myc-MEK [Drosophila]; S2 cells; GST-HYP + RRKM (Ha-RASV12, Pyo-RAF, V5-KSR, Myc-MEK) co-expressed; captured via GST-HYP; anti-MEK blot; parent: 1

Variant	ratio to parent
chain 2 Q199A	0.68
chain 2 D194K	0.05
chain 2 M196E	0.28
chain 2 V197E	0.04
chain 2 S193A	1.01

Same assay, conditions: with Myc-MEK [Drosophila]; S2 cells; GST-HYP, V5-KSR, Myc-MEK co-expressed; captured via GST-HYP; anti-MEK blot; parent: 1

Variant	ratio to parent
chain 2 Q199A	0.62
chain 2 D194K	0.05
chain 2 M196E	0.23
chain 2 V197E	0.03
chain 2 S193A	1.09
chain 2 D194K V197E	0.02

Same assay, conditions: with Myc-MEK [Drosophila]; S2 cells; GST-HYP + RRKM co-expressed; captured via GST-HYP; anti-Myc (MEK) blot; parent: 1

Variant	ratio to parent
chain 2 D80R	0.9
chain 2 D80R K282D	0.34
chain 2 E249R V251R	0.06
chain 2 F73R V251R	0.5
chain 2 F73R E249R	0.13
chain 2 E249R	0.76
chain 2 F73R	0.82
chain 2 A66F F73R	0.48
chain 2 V251R	0.78
chain 2 K282D	0.1
chain 2 A66F	1.08

Same assay, conditions: with Flag-CNK^2–549 [Drosophila]; S2 cells; Flag-CNK2–549, V5-KSR, Myc-MEK, GST-HYP co-expressed; captured via GST-HYP; anti-Myc (MEK) blot; parent: 1

Variant	ratio to parent
chain 1 E323R	0.56

Same assay, conditions: with Flag-CNK^2–549 [Drosophila]; S2 cells; Flag-CNK2–549, V5-KSR, Myc-MEK, GST-HYP co-expressed; captured via GST-HYP; anti-V5 (KSR) blot; parent: 1

Variant	ratio to parent
chain 1 E323R	0.66

Same assay, conditions: with Myc-MEK [Drosophila], S2 cells, Flag-CNK2–549, V5-KSR, GST-HYP co-expressed, captured via GST-HYP, anti-Myc (MEK) blot, parent: 1

Variant	ratio to parent
chain 2 R45F	1.01
chain 2 N81E	0.27
chain 2 N81W	0.05
chain 2 Y75R	0.68
chain 2 Q83E	0.04
chain 2 N95E	0.94
chain 2 R98E	1.12

Variants of: B3
Test: GST pull-down, immunoblot quantification
Settings: with V5-KSR [Drosophila]; S2 cells; GST-HYP, Flag-CNK2–549 + RRKM co-expressed; anti-V5 (KSR) blot; parent: 1

Variant	ratio to parent
chain 2 L90D	0.13
chain 2 I97D	0.62
chain 2 L90D I97D	0.05

Variants of: B4
Test: GST pull-down, immunoblot quantification
Settings: with Myc-MEK [Drosophila]; S2 cells; GST-HYP, Flag-CNK2–549 + RRKM co-expressed; anti-Myc (MEK) blot; parent: 1

Variant	ratio to parent
chain 2 L90D	0.09
chain 2 I97D	0.68
chain 2 L90D I97D	0.04
